Data taken from patent US20140274782A1, “AFFINITY REAGENTS AND METHODS FOR DETECTION, PURIFICATION, AND PROTEOMIC ANALYSIS OF METHYLATED PROTEINS” (The Board of Trustees of the Leland Stanford Junior …, priority 2013, published 2014).

Columns and labels:
3×MBT domain of L3MBTL1 = experiment: Triple SILAC pull-down, 3xMBT/3xMBTD355N ratio (cytoplasmic, nuclear and chromatin fractions of 293T cells); format: binding, human; conditions: for 3xMBT/D355N UNC Heavy: experiment with UNC0638 in heavy SILAC media; for 3xMBT/D355N UNC Light: experiment with UNC0638 in light SILAC media;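 as to all read-outs here: proteins quantified with MaxQuant, requiring at least two unique peptides and quantification in both label directions, normalized to the mean of proteins from a digested loading control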
G9a and GLP = biological target: T1, G9a and GLP (Homo sapiens, UniProt Q96KQ7+Q9H9B1); experiment: Triple SILAC pull-down after UNC0638 treatment of 293T cells, DMSO/UNC0638 ratio of protein captured by 3×MBT; format: cell-based; conditions: for Relative to UNC0638 UNC Heavy: UNC0638 in heavy SILAC media; for Relative to UNC0638 UNC Light: UNC0638 in light SILAC media; for Relative to UNC0638 Average: average of UNC Light and UNC Heavy experiments; for Candidate G9a/GLP target: reduced association with 3xMBT after UNC0638 treatment;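 as to all read-outs here: mass spectrometry (Q-Exactive) SILAC quantitation, DMSO/UNC0638 ratio computed after subtracting 3×MBTD355N mutant pull-down background, only proteins with at least twofold 3×MBT over mutant signal considered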
T1 construct: endogenous in cells; host or cells: HEK 293T
T1 sequence (Q96KQ7 2-1210 limits assumed): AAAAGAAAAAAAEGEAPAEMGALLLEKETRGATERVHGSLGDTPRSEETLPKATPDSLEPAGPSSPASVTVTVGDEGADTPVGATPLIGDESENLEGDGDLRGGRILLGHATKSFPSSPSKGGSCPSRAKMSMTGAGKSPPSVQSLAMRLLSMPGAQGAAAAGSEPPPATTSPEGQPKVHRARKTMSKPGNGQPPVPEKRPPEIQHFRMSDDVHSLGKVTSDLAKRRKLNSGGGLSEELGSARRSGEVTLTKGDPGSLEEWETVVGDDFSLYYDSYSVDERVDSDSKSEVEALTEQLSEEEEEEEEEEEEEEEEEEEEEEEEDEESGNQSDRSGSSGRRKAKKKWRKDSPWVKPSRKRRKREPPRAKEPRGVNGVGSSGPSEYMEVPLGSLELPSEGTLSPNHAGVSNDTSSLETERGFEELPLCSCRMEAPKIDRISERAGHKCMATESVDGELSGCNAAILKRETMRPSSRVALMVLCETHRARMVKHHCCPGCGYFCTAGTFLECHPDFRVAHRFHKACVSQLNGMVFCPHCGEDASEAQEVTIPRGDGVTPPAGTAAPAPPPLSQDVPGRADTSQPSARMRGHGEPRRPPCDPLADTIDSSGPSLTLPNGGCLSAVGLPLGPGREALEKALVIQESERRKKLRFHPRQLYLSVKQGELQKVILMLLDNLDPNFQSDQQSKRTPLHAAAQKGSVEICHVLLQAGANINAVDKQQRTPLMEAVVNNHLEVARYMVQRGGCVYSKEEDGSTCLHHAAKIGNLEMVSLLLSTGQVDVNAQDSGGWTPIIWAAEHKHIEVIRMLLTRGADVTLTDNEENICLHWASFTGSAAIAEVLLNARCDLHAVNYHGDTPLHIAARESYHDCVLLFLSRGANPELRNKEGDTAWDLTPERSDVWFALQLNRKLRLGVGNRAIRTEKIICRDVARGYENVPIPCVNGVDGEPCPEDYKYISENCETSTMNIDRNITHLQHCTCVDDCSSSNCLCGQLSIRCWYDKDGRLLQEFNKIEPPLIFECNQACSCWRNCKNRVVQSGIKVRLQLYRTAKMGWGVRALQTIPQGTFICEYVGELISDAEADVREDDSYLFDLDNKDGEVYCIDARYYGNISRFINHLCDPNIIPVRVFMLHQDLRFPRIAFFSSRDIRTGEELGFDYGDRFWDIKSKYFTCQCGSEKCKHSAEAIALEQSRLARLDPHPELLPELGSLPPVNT
T1 sequence (Q9H9B1 2-1298 limits assumed): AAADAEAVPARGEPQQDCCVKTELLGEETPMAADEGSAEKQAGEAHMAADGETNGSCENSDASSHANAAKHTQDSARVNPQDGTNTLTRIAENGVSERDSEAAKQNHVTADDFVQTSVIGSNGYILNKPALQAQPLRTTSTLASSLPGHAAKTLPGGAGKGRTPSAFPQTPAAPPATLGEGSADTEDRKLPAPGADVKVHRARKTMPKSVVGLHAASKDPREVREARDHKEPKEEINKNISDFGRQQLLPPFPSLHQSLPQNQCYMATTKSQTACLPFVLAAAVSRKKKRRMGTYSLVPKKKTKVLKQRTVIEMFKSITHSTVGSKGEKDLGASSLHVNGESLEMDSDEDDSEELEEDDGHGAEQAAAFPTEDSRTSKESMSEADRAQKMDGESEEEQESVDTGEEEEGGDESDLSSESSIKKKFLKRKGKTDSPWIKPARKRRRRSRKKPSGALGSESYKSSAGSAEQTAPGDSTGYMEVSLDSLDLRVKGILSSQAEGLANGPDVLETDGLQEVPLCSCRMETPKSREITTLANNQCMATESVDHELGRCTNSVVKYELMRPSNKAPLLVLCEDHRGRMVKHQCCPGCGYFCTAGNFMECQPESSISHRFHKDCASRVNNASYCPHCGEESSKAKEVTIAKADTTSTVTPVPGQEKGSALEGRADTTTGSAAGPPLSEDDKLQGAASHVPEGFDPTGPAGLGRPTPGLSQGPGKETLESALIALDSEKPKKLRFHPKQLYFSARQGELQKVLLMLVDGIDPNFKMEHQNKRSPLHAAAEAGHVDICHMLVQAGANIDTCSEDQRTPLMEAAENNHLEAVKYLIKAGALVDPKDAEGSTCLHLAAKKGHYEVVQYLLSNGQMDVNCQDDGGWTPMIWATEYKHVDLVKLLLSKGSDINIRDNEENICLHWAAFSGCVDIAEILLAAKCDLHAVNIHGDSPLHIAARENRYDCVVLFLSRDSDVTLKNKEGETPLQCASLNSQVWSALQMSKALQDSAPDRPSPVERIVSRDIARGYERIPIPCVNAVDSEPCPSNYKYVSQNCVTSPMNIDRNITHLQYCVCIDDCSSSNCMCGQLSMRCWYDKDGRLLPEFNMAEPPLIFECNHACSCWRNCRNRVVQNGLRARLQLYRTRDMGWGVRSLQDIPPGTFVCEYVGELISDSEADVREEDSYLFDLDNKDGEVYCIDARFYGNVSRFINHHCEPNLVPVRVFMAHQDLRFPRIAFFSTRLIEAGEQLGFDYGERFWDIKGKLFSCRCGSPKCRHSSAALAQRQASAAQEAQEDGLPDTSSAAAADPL

[1] = SILAC ratio, pull-down 3xMBT vs 3xMBTD355N
[2] = SILAC ratio DMSO/UNC0638 of protein pulled down with 3xMBT
[3] = SILAC ratio 3xMBT vs 3xMBTD355N pull-down, 293T cells, all values in log base 2
[4] = SILAC ratio DMSO relative to UNC0638, pull-down with 3xMBT, all values in log base 2

Row | Substance | 3xMBT/D355N UNC Heavy (3×MBT domain of L3MBTL1; [1]) | 3xMBT/D355N UNC Light (3×MBT domain of L3MBTL1; [1]) | Relative to UNC0638 UNC Heavy (G9a and GLP; [2]) | Relative to UNC0638 UNC Light (G9a and GLP; [2]) | Relative to UNC0638 Average (G9a and GLP) | Candidate G9a/GLP target (G9a and GLP) | 3xMBT/D355N UNC Heavy (3×MBT domain of L3MBTL1; [3]) | 3xMBT/D355N UNC Light (3×MBT domain of L3MBTL1; [3]) | Relative to UNC0638 UNC Heavy (G9a and GLP; [4]) | Relative to UNC0638 UNC Light (G9a and GLP; [4]) | Relative to UNC0638 Average (G9a and GLP; all values in log base 2)
1 | CHD4 | 2.24 log base 2 | 3.63 log base 2 | 0.34 log base 2 | 0.14 log base 2 | 0.24 log base 2 |  |  |  |  |  | 
2 | EIF4A1 | 3.59 log base 2 | 3.68 log base 2 | 0.30 log base 2 | 0.05 log base 2 | 0.18 log base 2 |  |  |  |  |  | 
3 | CSDA | 3.85 log base 2 | 3.10 log base 2 | 0.30 log base 2 | 0.73 log base 2 | 0.52 log base 2 | ✓ |  |  |  |  | 
4 | SUPT16H | 3.66 log base 2 | 4.01 log base 2 | 0.04 log base 2 | 0.23 log base 2 | 0.13 log base 2 |  |  |  |  |  | 
5 | FOCAD | 1.83 log base 2 | 2.73 log base 2 | 0.20 log base 2 | 0.20 log base 2 | 0.20 log base 2 |  |  |  |  |  | 
6 | ELAVL1 | 1.93 log base 2 | 2.42 log base 2 | 0.21 log base 2 | 0.36 log base 2 | 0.29 log base 2 |  |  |  |  |  | 
7 | PSME3 | 1.70 log base 2 | 1.89 log base 2 | 0.62 log base 2 | −0.01 log base 2 | 0.31 log base 2 |  |  |  |  |  | 
8 | G6PD [Hit G6PD] |  |  |  |  |  |  | 0.75 log base 2 | 1.96 log base 2 | −0.20 log base 2 | −0.01 log base 2 | −0.10 log base 2
9 | NSUN2 | 0.25 log base 2 | 2.00 log base 2 | 4.51 log base 2 | 0.18 log base 2 | 2.35 log base 2 | √✓ |  |  |  |  | 
10 | RPTOR |  |  |  |  |  |  | 1.86 log base 2 | 1.58 log base 2 | 0.54 log base 2 | −0.81 log base 2 | −0.14 log base 2
11 | TRIP12 | 0.66 log base 2 | 1.34 log base 2 | 0.46 log base 2 | −0.24 log base 2 | 0.11 log base 2 |  |  |  |  |  | 
12 | DDX21 | 0.55 log base 2 | 1.00 log base 2 |  | 0.14 log base 2 | 0.14 log base 2 |  |  |  |  |  | 
13 | VRK1 | 2.10 log base 2 | 2.56 log base 2 | 0.21 log base 2 | 0.03 log base 2 | 0.12 log base 2 |  |  |  |  |  | 
14 | TOP2B | 1.61 log base 2 | 2.04 log base 2 | 0.21 log base 2 | 0.21 log base 2 | 0.21 log base 2 |  |  |  |  |  | 
15 | CORO1C | 2.83 log base 2 | 3.30 log base 2 | 0.07 log base 2 | 0.26 log base 2 | 0.17 log base 2 |  |  |  |  |  | 
16 | EIF4B |  |  |  |  |  |  | 3.26 log base 2 | 2.50 log base 2 | −0.32 log base 2 | 0.03 log base 2 | −0.15 log base 2
17 | CTBP2 | 1.97 log base 2 | 1.74 log base 2 | 0.50 log base 2 | 0.15 log base 2 | 0.32 log base 2 |  |  |  |  |  | 
